Molecular target: KCNQ1 H363C in the cysteine-less background (human) (UniProt P51787)

KCNE1 D76C in the cysteine-less, HA-tagged background (from UniProt P15382 1-129) (natural protein)
time constant of oxidant (0.1% H2O2)-induced current reduction, H363C with D76C: 50 s

Source: PMC2888057
